In US20240270846A1 (published 2024):

B1: GLS3000 S27aY (Kabat) L chain altered form, one-arm antibody with CE115HA000 (antibody, human IgG1, kappa, L234A L235A, N297A, name in Kabat numbering)
heavy: QVQLVESGGGVVQPGRSLRLSCAASGFTFSNAWMHWVRQAPGKGLEWVAQIKAKSNNYATYYAESVKGRFTISRDDSKNSLYLQMNSLKTEDTAVYYCRYVHYGAYYGVDAWGQGTTVTVSSASTKGPSVFPLAPSSKSTSGGTAALGCLVKDYFPEPVTVSWNSGALTSGVHTFPAVLQSSGLYSLSSVVTVPSSSLGTQTYICNVNHKPSNTKVDKKVEPKSCDKTHTCPPCPAPEAAGGPSVFLFPPKPKDTLMISRTPEVTCVVVDVSHEDPEVKFNWYVDGVEVHNAKTKPREEQYASTYRVVSVLTVLHQDWLNGKEYKCKVSNKALPAPIEKTISKAKGQPREPQVYTLPPSRCELTKNQVSLSCAVKGFYPSDIAVEWESNGQPENNYKTTPPVLDSDGSFFLVSKLTVDKSRWQQGNVFSCSVMHEALHNHYTQKSLSLSPDYKDDDDK
chain: EPKSSDKTHTCPPCPAPELLGGPSVFLFPPKPKDTLMISRTPEVTCVVVDVSHEDPEVKFNWYVDGVEVHNAKTKPREEQYNSTYRVVSVLTVLHQDWLNGKEYKCKVSNKALPAPIEKTISKAKGQPREPQVCTLPPSRDELTKNQVSLWCLVKGFYPSDIAVEWESNGQPENNYKTTPPVLDSDGSFFLYSKLTVDKSRWQQGNVFSCSVMHEALHNRYTQKSLSLSP
light: DIVMTQSPLSLPVTPGEPASISCRSSQYLVHSNRNTYLHWYQQKPGQAPRLLIYKVSNRFSGVPDRFSGSGSGTDFTLKISRVEAEDVGVYYCGQGTQVPYTFGQGTKLEIKRTVAAPSVFIFPPSDEQLKSGTASVVCLLNNFYPREAKVQWKVDNALQSGNSQESVTEQDSKDSTYSLSSTLTLSKADYEKHKVYACEVTHQGLSSPVTKSFNRGEC
notes: one-arm antibody
B2: GLS3000 S27eF (Kabat) L chain altered form, one-arm antibody with CE115HA000 (antibody, human IgG1, kappa, L234A L235A, N297A, name in Kabat numbering)
heavy: QVQLVESGGGVVQPGRSLRLSCAASGFTFSNAWMHWVRQAPGKGLEWVAQIKAKSNNYATYYAESVKGRFTISRDDSKNSLYLQMNSLKTEDTAVYYCRYVHYGAYYGVDAWGQGTTVTVSSASTKGPSVFPLAPSSKSTSGGTAALGCLVKDYFPEPVTVSWNSGALTSGVHTFPAVLQSSGLYSLSSVVTVPSSSLGTQTYICNVNHKPSNTKVDKKVEPKSCDKTHTCPPCPAPEAAGGPSVFLFPPKPKDTLMISRTPEVTCVVVDVSHEDPEVKFNWYVDGVEVHNAKTKPREEQYASTYRVVSVLTVLHQDWLNGKEYKCKVSNKALPAPIEKTISKAKGQPREPQVYTLPPSRCELTKNQVSLSCAVKGFYPSDIAVEWESNGQPENNYKTTPPVLDSDGSFFLVSKLTVDKSRWQQGNVFSCSVMHEALHNHYTQKSLSLSPDYKDDDDK
chain: EPKSSDKTHTCPPCPAPELLGGPSVFLFPPKPKDTLMISRTPEVTCVVVDVSHEDPEVKFNWYVDGVEVHNAKTKPREEQYNSTYRVVSVLTVLHQDWLNGKEYKCKVSNKALPAPIEKTISKAKGQPREPQVCTLPPSRDELTKNQVSLWCLVKGFYPSDIAVEWESNGQPENNYKTTPPVLDSDGSFFLYSKLTVDKSRWQQGNVFSCSVMHEALHNRYTQKSLSLSP
light: DIVMTQSPLSLPVTPGEPASISCRSSQSLVHFNRNTYLHWYQQKPGQAPRLLIYKVSNRFSGVPDRFSGSGSGTDFTLKISRVEAEDVGVYYCGQGTQVPYTFGQGTKLEIKRTVAAPSVFIFPPSDEQLKSGTASVVCLLNNFYPREAKVQWKVDNALQSGNSQESVTEQDSKDSTYSLSSTLTLSKADYEKHKVYACEVTHQGLSSPVTKSFNRGEC
notes: one-arm antibody
B3: GLS3000 S27eE (Kabat) L chain altered form, one-arm antibody with CE115HA000 (antibody, human IgG1, kappa, L234A L235A, N297A, name in Kabat numbering)
heavy: QVQLVESGGGVVQPGRSLRLSCAASGFTFSNAWMHWVRQAPGKGLEWVAQIKAKSNNYATYYAESVKGRFTISRDDSKNSLYLQMNSLKTEDTAVYYCRYVHYGAYYGVDAWGQGTTVTVSSASTKGPSVFPLAPSSKSTSGGTAALGCLVKDYFPEPVTVSWNSGALTSGVHTFPAVLQSSGLYSLSSVVTVPSSSLGTQTYICNVNHKPSNTKVDKKVEPKSCDKTHTCPPCPAPEAAGGPSVFLFPPKPKDTLMISRTPEVTCVVVDVSHEDPEVKFNWYVDGVEVHNAKTKPREEQYASTYRVVSVLTVLHQDWLNGKEYKCKVSNKALPAPIEKTISKAKGQPREPQVYTLPPSRCELTKNQVSLSCAVKGFYPSDIAVEWESNGQPENNYKTTPPVLDSDGSFFLVSKLTVDKSRWQQGNVFSCSVMHEALHNHYTQKSLSLSPDYKDDDDK
chain: EPKSSDKTHTCPPCPAPELLGGPSVFLFPPKPKDTLMISRTPEVTCVVVDVSHEDPEVKFNWYVDGVEVHNAKTKPREEQYNSTYRVVSVLTVLHQDWLNGKEYKCKVSNKALPAPIEKTISKAKGQPREPQVCTLPPSRDELTKNQVSLWCLVKGFYPSDIAVEWESNGQPENNYKTTPPVLDSDGSFFLYSKLTVDKSRWQQGNVFSCSVMHEALHNRYTQKSLSLSP
light: DIVMTQSPLSLPVTPGEPASISCRSSQSLVHENRNTYLHWYQQKPGQAPRLLIYKVSNRFSGVPDRFSGSGSGTDFTLKISRVEAEDVGVYYCGQGTQVPYTFGQGTKLEIKRTVAAPSVFIFPPSDEQLKSGTASVVCLLNNFYPREAKVQWKVDNALQSGNSQESVTEQDSKDSTYSLSSTLTLSKADYEKHKVYACEVTHQGLSSPVTKSFNRGEC
notes: one-arm antibody
B4: GLS3000 S27eD (Kabat) L chain altered form, one-arm antibody with CE115HA000 (antibody, human IgG1, kappa, L234A L235A, N297A, name in Kabat numbering)
heavy: QVQLVESGGGVVQPGRSLRLSCAASGFTFSNAWMHWVRQAPGKGLEWVAQIKAKSNNYATYYAESVKGRFTISRDDSKNSLYLQMNSLKTEDTAVYYCRYVHYGAYYGVDAWGQGTTVTVSSASTKGPSVFPLAPSSKSTSGGTAALGCLVKDYFPEPVTVSWNSGALTSGVHTFPAVLQSSGLYSLSSVVTVPSSSLGTQTYICNVNHKPSNTKVDKKVEPKSCDKTHTCPPCPAPEAAGGPSVFLFPPKPKDTLMISRTPEVTCVVVDVSHEDPEVKFNWYVDGVEVHNAKTKPREEQYASTYRVVSVLTVLHQDWLNGKEYKCKVSNKALPAPIEKTISKAKGQPREPQVYTLPPSRCELTKNQVSLSCAVKGFYPSDIAVEWESNGQPENNYKTTPPVLDSDGSFFLVSKLTVDKSRWQQGNVFSCSVMHEALHNHYTQKSLSLSPDYKDDDDK
chain: EPKSSDKTHTCPPCPAPELLGGPSVFLFPPKPKDTLMISRTPEVTCVVVDVSHEDPEVKFNWYVDGVEVHNAKTKPREEQYNSTYRVVSVLTVLHQDWLNGKEYKCKVSNKALPAPIEKTISKAKGQPREPQVCTLPPSRDELTKNQVSLWCLVKGFYPSDIAVEWESNGQPENNYKTTPPVLDSDGSFFLYSKLTVDKSRWQQGNVFSCSVMHEALHNRYTQKSLSLSP
light: DIVMTQSPLSLPVTPGEPASISCRSSQSLVHDNRNTYLHWYQQKPGQAPRLLIYKVSNRFSGVPDRFSGSGSGTDFTLKISRVEAEDVGVYYCGQGTQVPYTFGQGTKLEIKRTVAAPSVFIFPPSDEQLKSGTASVVCLLNNFYPREAKVQWKVDNALQSGNSQESVTEQDSKDSTYSLSSTLTLSKADYEKHKVYACEVTHQGLSSPVTKSFNRGEC
notes: one-arm antibody
B5: GLS3000 S27eG (Kabat) L chain altered form, one-arm antibody with CE115HA000 (antibody, human IgG1, kappa, L234A L235A, N297A, name in Kabat numbering)
heavy: QVQLVESGGGVVQPGRSLRLSCAASGFTFSNAWMHWVRQAPGKGLEWVAQIKAKSNNYATYYAESVKGRFTISRDDSKNSLYLQMNSLKTEDTAVYYCRYVHYGAYYGVDAWGQGTTVTVSSASTKGPSVFPLAPSSKSTSGGTAALGCLVKDYFPEPVTVSWNSGALTSGVHTFPAVLQSSGLYSLSSVVTVPSSSLGTQTYICNVNHKPSNTKVDKKVEPKSCDKTHTCPPCPAPEAAGGPSVFLFPPKPKDTLMISRTPEVTCVVVDVSHEDPEVKFNWYVDGVEVHNAKTKPREEQYASTYRVVSVLTVLHQDWLNGKEYKCKVSNKALPAPIEKTISKAKGQPREPQVYTLPPSRCELTKNQVSLSCAVKGFYPSDIAVEWESNGQPENNYKTTPPVLDSDGSFFLVSKLTVDKSRWQQGNVFSCSVMHEALHNHYTQKSLSLSPDYKDDDDK
chain: EPKSSDKTHTCPPCPAPELLGGPSVFLFPPKPKDTLMISRTPEVTCVVVDVSHEDPEVKFNWYVDGVEVHNAKTKPREEQYNSTYRVVSVLTVLHQDWLNGKEYKCKVSNKALPAPIEKTISKAKGQPREPQVCTLPPSRDELTKNQVSLWCLVKGFYPSDIAVEWESNGQPENNYKTTPPVLDSDGSFFLYSKLTVDKSRWQQGNVFSCSVMHEALHNRYTQKSLSLSP
light: DIVMTQSPLSLPVTPGEPASISCRSSQSLVHGNRNTYLHWYQQKPGQAPRLLIYKVSNRFSGVPDRFSGSGSGTDFTLKISRVEAEDVGVYYCGQGTQVPYTFGQGTKLEIKRTVAAPSVFIFPPSDEQLKSGTASVVCLLNNFYPREAKVQWKVDNALQSGNSQESVTEQDSKDSTYSLSSTLTLSKADYEKHKVYACEVTHQGLSSPVTKSFNRGEC
notes: one-arm antibody
B6: GLS3000 S27eA (Kabat) L chain altered form, one-arm antibody with CE115HA000 (antibody, human IgG1, kappa, L234A L235A, N297A, name in Kabat numbering)
heavy: QVQLVESGGGVVQPGRSLRLSCAASGFTFSNAWMHWVRQAPGKGLEWVAQIKAKSNNYATYYAESVKGRFTISRDDSKNSLYLQMNSLKTEDTAVYYCRYVHYGAYYGVDAWGQGTTVTVSSASTKGPSVFPLAPSSKSTSGGTAALGCLVKDYFPEPVTVSWNSGALTSGVHTFPAVLQSSGLYSLSSVVTVPSSSLGTQTYICNVNHKPSNTKVDKKVEPKSCDKTHTCPPCPAPEAAGGPSVFLFPPKPKDTLMISRTPEVTCVVVDVSHEDPEVKFNWYVDGVEVHNAKTKPREEQYASTYRVVSVLTVLHQDWLNGKEYKCKVSNKALPAPIEKTISKAKGQPREPQVYTLPPSRCELTKNQVSLSCAVKGFYPSDIAVEWESNGQPENNYKTTPPVLDSDGSFFLVSKLTVDKSRWQQGNVFSCSVMHEALHNHYTQKSLSLSPDYKDDDDK
chain: EPKSSDKTHTCPPCPAPELLGGPSVFLFPPKPKDTLMISRTPEVTCVVVDVSHEDPEVKFNWYVDGVEVHNAKTKPREEQYNSTYRVVSVLTVLHQDWLNGKEYKCKVSNKALPAPIEKTISKAKGQPREPQVCTLPPSRDELTKNQVSLWCLVKGFYPSDIAVEWESNGQPENNYKTTPPVLDSDGSFFLYSKLTVDKSRWQQGNVFSCSVMHEALHNRYTQKSLSLSP
light: DIVMTQSPLSLPVTPGEPASISCRSSQSLVHANRNTYLHWYQQKPGQAPRLLIYKVSNRFSGVPDRFSGSGSGTDFTLKISRVEAEDVGVYYCGQGTQVPYTFGQGTKLEIKRTVAAPSVFIFPPSDEQLKSGTASVVCLLNNFYPREAKVQWKVDNALQSGNSQESVTEQDSKDSTYSLSSTLTLSKADYEKHKVYACEVTHQGLSSPVTKSFNRGEC
notes: one-arm antibody

molecular target: T1, CD3 epsilon homodimer protein (UniProt P07766 23-126); assay: SPR Biacore T200, CD3 epsilon homodimer immobilized; vs unaltered GLS3000;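 note: antibody variants flowed as analyte over CD3 epsilon homodimer amine-coupled to a CM4 chip, at 25 °C in HBS-EP+ running buffer, fitted with Biacore T200 Evaluation Software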
T1 construct: construct not described; homodimer as printed; also called CD3 (CD3 epsilon)
T1 sequence (P07766 23-126): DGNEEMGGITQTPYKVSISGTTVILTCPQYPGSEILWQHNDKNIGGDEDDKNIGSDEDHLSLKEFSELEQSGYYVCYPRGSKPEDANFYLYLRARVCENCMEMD

Binder	KD ratio to GLS3000 (Affinity up)
B1	0.93
B2	1.16
B3	1.04
B4	1.23
B5	1.03
B6	1.01
